For 84 substances, abundance fitness results are on record in the Human Domainome abundance scans (Beltran et al. 2025).

± gives the uncertainty stated by the source.

A short description of the data set: abundance fitness (aPCA) (normalised: wild type 0, dead -1); higher = more abundant; growth selection in yeast, the domain comes from the species named. The following applies: Homo sapiens.
As for “E3 ubiquitin-protein ligase NEDD4-like R223D, Q96PU5”, the abundance fitness was -0.481 ± 0.098.
As for “E3 ubiquitin-protein ligase NEDD4-like R223E, Q96PU5”, the figure is -0.378 ± 0.087; as for “E3 ubiquitin-protein ligase NEDD4-like R223F, Q96PU5”, -0.461 ± 0.12; as for “E3 ubiquitin-protein ligase NEDD4-like R223G, Q96PU5”, -0.696 ± 0.068.
As for “E3 ubiquitin-protein ligase NEDD4-like R223H, Q96PU5”, the figure is -0.18 ± 0.13.
As to “E3 ubiquitin-protein ligase NEDD4-like R223K, Q96PU5”, the abundance fitness came out at 0.013 ± 0.1.
“E3 ubiquitin-protein ligase NEDD4-like R223L, Q96PU5”: the abundance fitness was -0.206 ± 0.053.
“E3 ubiquitin-protein ligase NEDD4-like R223M, Q96PU5”: the abundance fitness was -0.28 ± 0.067.
The result for “E3 ubiquitin-protein ligase NEDD4-like R223N, Q96PU5” reads -0.082 ± 0.088.
The result for “E3 ubiquitin-protein ligase NEDD4-like R223P, Q96PU5” reads -0.145 ± 0.11.
Take “E3 ubiquitin-protein ligase NEDD4-like R223Q, Q96PU5”: the abundance fitness is -0.153 ± 0.082.
The result for “E3 ubiquitin-protein ligase NEDD4-like R223S, Q96PU5” reads -0.154 ± 0.061.
On to “E3 ubiquitin-protein ligase NEDD4-like R223T, Q96PU5”, for which the abundance fitness is -0.393 ± 0.094.
The result for “E3 ubiquitin-protein ligase NEDD4-like R223V, Q96PU5” reads -0.249 ± 0.064; that for “E3 ubiquitin-protein ligase NEDD4-like R223Y, Q96PU5”, -0.41 ± 0.1.
As for “E3 ubiquitin-protein ligase NEDD4-like S184A, Q96PU5”, the figure is -0.461 ± 0.096; as for “E3 ubiquitin-protein ligase NEDD4-like S184C, Q96PU5”, -0.457 ± 0.1.
As for “E3 ubiquitin-protein ligase NEDD4-like S184E, Q96PU5”, the figure is -0.507 ± 0.49; as for “E3 ubiquitin-protein ligase NEDD4-like S184F, Q96PU5”, 0.13 ± 0.084; as for “E3 ubiquitin-protein ligase NEDD4-like S184G, Q96PU5”, -0.476 ± 0.11.
For “E3 ubiquitin-protein ligase NEDD4-like S184H, Q96PU5”, the abundance fitness was -0.437 ± 0.15.
For “E3 ubiquitin-protein ligase NEDD4-like S184L, Q96PU5”, the abundance fitness was -0.599 ± 0.14.
As for “E3 ubiquitin-protein ligase NEDD4-like S184M, Q96PU5”, the figure is 0.884 ± 0.2.
“E3 ubiquitin-protein ligase NEDD4-like S184N, Q96PU5”: the abundance fitness is -0.554 ± 0.4.
Take “E3 ubiquitin-protein ligase NEDD4-like S184P, Q96PU5”: the abundance fitness was -0.682 ± 0.26.
For “E3 ubiquitin-protein ligase NEDD4-like S184R, Q96PU5”, the abundance fitness was -1.23 ± 0.22.
As for “E3 ubiquitin-protein ligase NEDD4-like S184V, Q96PU5”, the figure is -0.505 ± 0.13; as for “E3 ubiquitin-protein ligase NEDD4-like S184W, Q96PU5”, -1.33 ± 0.15; as for “E3 ubiquitin-protein ligase NEDD4-like S184Y, Q96PU5”, -0.099 ± 0.12.
As for “E3 ubiquitin-protein ligase NEDD4-like S225A, Q96PU5”, the figure is -0.068 ± 0.073.
As for “E3 ubiquitin-protein ligase NEDD4-like S225C, Q96PU5”, the figure is -0.29 ± 0.099; as for “E3 ubiquitin-protein ligase NEDD4-like S225D, Q96PU5”, -0.006 ± 0.065.
Substance “E3 ubiquitin-protein ligase NEDD4-like S225E, Q96PU5” registered an abundance fitness of 0.041 ± 0.081.
The result for “E3 ubiquitin-protein ligase NEDD4-like S225F, Q96PU5” reads -0.267 ± 0.081; that for “E3 ubiquitin-protein ligase NEDD4-like S225G, Q96PU5”, -0.072 ± 0.068.
The result for “E3 ubiquitin-protein ligase NEDD4-like S225H, Q96PU5” reads -0.264 ± 0.14.
With “E3 ubiquitin-protein ligase NEDD4-like S225I, Q96PU5”, the abundance fitness is -0.038 ± 0.1.
With “E3 ubiquitin-protein ligase NEDD4-like S225K, Q96PU5”, the abundance fitness is 0.019 ± 0.095.
As for “E3 ubiquitin-protein ligase NEDD4-like S225L, Q96PU5”, the abundance fitness is -0.095 ± 0.056.
The result for “E3 ubiquitin-protein ligase NEDD4-like S225M, Q96PU5” reads -0.136 ± 0.092.
As for “E3 ubiquitin-protein ligase NEDD4-like S225P, Q96PU5”, the figure is 0.018 ± 0.083; as for “E3 ubiquitin-protein ligase NEDD4-like S225Q, Q96PU5”, 0.048 ± 0.063.
In the case of “E3 ubiquitin-protein ligase NEDD4-like S225R, Q96PU5”, the abundance fitness was -0.024 ± 0.064.
For the substance “E3 ubiquitin-protein ligase NEDD4-like S225T, Q96PU5”, the abundance fitness was -0.066 ± 0.079.
The result for “E3 ubiquitin-protein ligase NEDD4-like S225V, Q96PU5” reads -0.018 ± 0.076.
As for “E3 ubiquitin-protein ligase NEDD4-like S225W, Q96PU5”, the abundance fitness is -0.312 ± 0.068.
Regarding “E3 ubiquitin-protein ligase NEDD4-like S225Y, Q96PU5”, the abundance fitness is -0.395 ± 0.12.
As for “E3 ubiquitin-protein ligase NEDD4-like S230A, Q96PU5”, the figure is -0.024 ± 0.058.
Take “E3 ubiquitin-protein ligase NEDD4-like S230C, Q96PU5”: the abundance fitness is -0.067 ± 0.066.
For “E3 ubiquitin-protein ligase NEDD4-like S230D, Q96PU5”, the abundance fitness is -0.023 ± 0.095.
For “E3 ubiquitin-protein ligase NEDD4-like S230E, Q96PU5”, the abundance fitness was -0.034 ± 0.066.
As to “E3 ubiquitin-protein ligase NEDD4-like S230F, Q96PU5”, the abundance fitness is -0.139 ± 0.11.
In the case of “E3 ubiquitin-protein ligase NEDD4-like S230G, Q96PU5”, the abundance fitness is -0.081 ± 0.054.
As for “E3 ubiquitin-protein ligase NEDD4-like S230H, Q96PU5”, the figure is -0.002 ± 0.09; as for “E3 ubiquitin-protein ligase NEDD4-like S230I, Q96PU5”, -0.274 ± 0.13.
The result for “E3 ubiquitin-protein ligase NEDD4-like S230K, Q96PU5” reads -0.186 ± 0.092; that for “E3 ubiquitin-protein ligase NEDD4-like S230L, Q96PU5”, -0.29 ± 0.071.
The result for “E3 ubiquitin-protein ligase NEDD4-like S230N, Q96PU5” reads 0.108 ± 0.071; that for “E3 ubiquitin-protein ligase NEDD4-like S230P, Q96PU5”, -0.027 ± 0.085.
In turn, “E3 ubiquitin-protein ligase NEDD4-like S230Q, Q96PU5” came in with an abundance fitness of 0.025 ± 0.077.
The result for “E3 ubiquitin-protein ligase NEDD4-like S230R, Q96PU5” reads -0.095 ± 0.066.
As for “E3 ubiquitin-protein ligase NEDD4-like S230T, Q96PU5”, the figure is -0.051 ± 0.067; as for “E3 ubiquitin-protein ligase NEDD4-like S230V, Q96PU5”, -0.136 ± 0.059; as for “E3 ubiquitin-protein ligase NEDD4-like S230W, Q96PU5”, -0.496 ± 0.085.
As for “E3 ubiquitin-protein ligase NEDD4-like S230Y, Q96PU5”, the figure is -0.204 ± 0.12; as for “E3 ubiquitin-protein ligase NEDD4-like S231A, Q96PU5”, -0.099 ± 0.075; as for “E3 ubiquitin-protein ligase NEDD4-like S231C, Q96PU5”, -0.142 ± 0.09.
“E3 ubiquitin-protein ligase NEDD4-like S231D, Q96PU5”: the abundance fitness is -0.425 ± 0.11.
“E3 ubiquitin-protein ligase NEDD4-like S231E, Q96PU5”: the abundance fitness was 0.134 ± 0.089.
For “E3 ubiquitin-protein ligase NEDD4-like S231F, Q96PU5”, the abundance fitness was -0.275 ± 0.11.
As for “E3 ubiquitin-protein ligase NEDD4-like S231G, Q96PU5”, the figure is -0.049 ± 0.064.
As for “E3 ubiquitin-protein ligase NEDD4-like S231H, Q96PU5”, the figure is -0.331 ± 0.13; as for “E3 ubiquitin-protein ligase NEDD4-like S231I, Q96PU5”, 0.087 ± 0.12.
Turning to “E3 ubiquitin-protein ligase NEDD4-like S231K, Q96PU5”, the abundance fitness was -0.273 ± 0.15.
Substance “E3 ubiquitin-protein ligase NEDD4-like S231L, Q96PU5” displayed an abundance fitness of 0.002 ± 0.088.
The result for “E3 ubiquitin-protein ligase NEDD4-like S231M, Q96PU5” reads -0.222 ± 0.08; that for “E3 ubiquitin-protein ligase NEDD4-like S231N, Q96PU5”, -0.385 ± 0.12; that for “E3 ubiquitin-protein ligase NEDD4-like S231P, Q96PU5”, -0.008 ± 0.08.
“E3 ubiquitin-protein ligase NEDD4-like S231Q, Q96PU5” gave an abundance fitness of 0.242 ± 0.14.
In turn, “E3 ubiquitin-protein ligase NEDD4-like S231R, Q96PU5” displayed an abundance fitness of 0.002 ± 0.074.
As for “E3 ubiquitin-protein ligase NEDD4-like S231T, Q96PU5”, the figure is 0.139 ± 0.098; as for “E3 ubiquitin-protein ligase NEDD4-like S231V, Q96PU5”, -0.062 ± 0.067; as for “E3 ubiquitin-protein ligase NEDD4-like S231Y, Q96PU5”, -0.228 ± 0.11.
As to “E3 ubiquitin-protein ligase NEDD4-like T209C, Q96PU5”, the abundance fitness is -0.146 ± 0.067.
